Results from patent US20210047398A1, “ASPROSIN, A FAST-INDUCED GLUCOGENIC PROTEIN HORMONE” (Baylor College of Medicine, priority 2016, published 2021).

Assays:
hepatocyte surface = assay: Asprosin-biotin conjugate binding to the hepatocyte surface; parameters: species or system mouse; settings: 100-fold excess
Protocol: Recombinant asprosin was conjugated with biotin using the Basic Biotinylation Sulfo-NHS Kit from Pierce. […] The cells were washed 3 times with PBS without lysis, followed by addition of streptavidin-HRP. The resulting absorbance was measured colorimetrically and the results were normalized to protein content.

[1] = Food intake, energy expenditure and body composition after asprosin gain-of-function; format: in vivo, mice
Protocol: Mouse food intake and energy expenditure—Food intake and energy expenditure were measured using the CLAMS System (Comprehensive Lab Animal Monitoring System, Columbus Instruments). Animals were acclimatized in the recording chambers for 48-72 hours, and measurements were taken subsequently for 24 hours during the light cycle and dark cycle. Mice received food and water ad libitum, or after an overnight fast where indicated. Oxygen consumption and food intake were recorded.
As previously described (Yan et al., 2016), male mice were anesthetized with inhaled isoflurane and stainless steel cannulas (Plastics One) were inserted into the lateral ventricles (0.34 mm caudal and 1 mm lateral from bregma; depth, 2.3 mm). […] These mice received 10 ng GFP ([…]) twice a day for 3 continuous days, and 10 ng asprosin (in […]) the last day. The BioDAQ food intake monitoring system (Research Diets, Inc) was used to monitor the food intake, and the food intake from the last GFP injection and asprosin were compared.
Mouse body composition—Body composition was analyzed using an ECHO-MRI system (Echo medical systems, Texas) or DEXA scans where indicated. Lean mass, fat mass, and overall body weight were calculated using the manufacturer-provided software.

[2] = bacterially-generated version (Romere et al., 2016); cited from earlier work
POMC neurons = assay: Whole-cell patch clamp recordings on POMC neurons; format: cell-based, mice
Protocol: Electrophysiology—Whole-cell patch clamp recordings were performed on identified AgRP neurons or POMC neurons in the brain slices containing the arcuate nucleus of the hypothalamus (ARH). In particular, to identify AgRP neurons, the inventors crossed Rosa26-tdTOMATO allele onto the regular AgRP-Cre mice (Tong et al., 2008) to generate AgRP-Cre/Rosa26-tdTOMATO mice, which express TOMATO selectively in AgRP/NPY neurons. In some studies, the inventors crossed NPY-GFP mice (Pinto et al., 2004) with NPS mice to generate NPY-GFP mice with or without the NPS mutation, and GFP-labelled neurons in the arcuate nucleus were recorded. In order to record POMC neurons, the inventors crossed Rosa26-tdTOMATO allele onto the POMC-CreERT2 mice (Berglund et al., 2013) to generate POMC-CreERT2/Rosa26-tdTOMATO mice, which express TOMATO selectively in mature POMC neurons upon tamoxifen induction (0.2 mg/g, i.p. 6 weeks of age). In some studies, the inventors also crossed the AgRP-DTR allele onto POMC-GFP mice, and these mice received DT or saline injections (described above) to generate mice with or without AgRP neurons ablated.
Six to twelve-week old mice were deeply anesthetized with isoflurane and transcardially perfused with a modified ice-cold sucrose-based cutting solution (pH 7.3) containing 10 mM NaCl, 25 mM NaHCO3, 195 mM Sucrose, 5 mM Glucose, 2.5 mM KCl, 1.25 mM NaH2PO4, 2 mM Na-Pyruvate, 0.5 mM CaCl2, and 7 mM MgCl2, bubbled continuously with 95% O2 and 5% CO2 (Ren et al., 2012). The mice were then decapitated, and the entire brain was removed and immediately submerged in the cutting solution. Slices (250 μm) were cut with a Microm HM 650V vibratome (Thermo Scientific). Three brain slices containing the arcuate nucleus were obtained for each animal (Bregma −2.06 mm to −1.46 mm; Interaural 1.74 mm to 2.34 mm), and recordings were made at levels throughout this brain region. The slices were recovered for 1 h at 34° C. and then maintained at room temperature in artificial cerebrospinal fluid (aCSF, pH 7.3) containing 126 mM NaCl, 2.5 mM KCl, 2.4 mM CaCl2, 1.2 mM NaH2PO4, 1.2 mM MgCl2, 11.1 mM glucose, and 21.4 mM NaHCO3) saturated with 95% O2 and 5% CO2 before recording.
Slices were transferred to a recording chamber and allowed to equilibrate for at least 10 min before recording. The slices were superfused at 34° C. in oxygenated aCSF at a flow rate of 1.8-2 ml/min. GFP or TOMATO-labeled neurons in the ARH were visualized using epifluorescence and IR-DIC imaging on an upright microscope (Eclipse FN-1, Nikon) equipped with a moveable stage (MP-285, Sutter Instrument). Patch pipettes with resistances of 3-5 MΩ were filled with intracellular solution (pH 7.3) containing 128 mM K-Gluconate, 10 mM KCl, 10 mM HEPES, 0.1 mM EGTA, 2 mM MgCl2, 0.05 mM Na-GTP and 0.05 mM Mg-ATP. Recordings were made using a MultiClamp 700B amplifier (Axon Instrument), sampled using Digidata 1440A and analyzed offline with pClamp 10.3 software (Axon Instruments). Series resistance was monitored during the recording, and the values were generally <10 MΩ and were not compensated. The liquid junction potential was +12.5 mV, and was corrected after the experiment. Data were excluded if the series resistance increased dramatically during the experiment or without overshoot for action potential. Currents were amplified, filtered at 1 kHz, and digitized at 20 kHz. Current clamp was engaged to test neural firing frequency and resting membrane potential (RM) at the baseline and puff delivered recombinant Asprosin (500 ms at various concentrations indicated in the figures). For the asprosin antibody pre-incubation experiment, asprosin and anti-asprosin mAB or IgG were gently mixed at a 1:100 ratio, and then kept on ice for one hour before recording. After AgRP or POMC neuron response to asprosin alone was confirmed, the mixture of recombinant asprosin and anti-asprosin mAB or IgG was perfused to treat the AgRP or POMC neurons for 4 minutes. […]

[3] = daily subcutaneous doses for 10 days

B1: recombinant asprosin: 146 amino acid E. coli expressed fusion protein: 6 amino acid N-terminal His tag and 140 amino acid wild type asprosin (FBN1 2732-2871) (protein)
chain: HHHHHHSTNETDASNIEDQSETEANVSLASWDVEKTAIFAFNISHVSNKVRILELLPALTTLTNHNRYLIESGNEDGFFKINQKEGISYLHFTKKKPVAGTYSLQISSTPLYKKKELNQLEDKYDKDYLSGELGDNLKMKIQVLLH
Q: Which results are given for B1?
A: competition of asprosin-biotin binding (hepatocyte surface): abolished the effect; orexigenic effect in mice with AgRP neuron ablation ([1]; IP injection, 24 hours cumulative food intake): completely eliminated; adiposity (fat mass) [1, 3]: increase in adiposity; energy expenditure [1, 3]: no change in energy expenditure; food intake [1, 3]: expected hyperphagia; food intake after intracerebroventricular (ICV) injection ([1]; dark phase, 10 ng ICV): orexigenic effect; food intake (FIG. 17) ([1]; mice injected with asprosin): hyperphagia; hypophagia of NPS mice ([1]; single subcutaneous dose): sufficient to completely rescue the hypophagia; latent phase prior to orexigenic effect ([1]; single subcutaneous dose): latent phase of several hours; food intake over the next 24-hr ([1]; single subcutaneous dose, C57Bl/6 mice, vs GFP): greater food intake; plasma half-life [2]: ~20 min; miniature inhibitory post-synaptic current (mIPSC) in POMC neurons (POMC neurons): increased the frequency but not amplitude; POMC neuron firing frequency with AgRP neuron ablation (POMC neurons; AgRP neuron ablated mice): little effect; asprosin-mediated hyperpolarization in POMC neurons with AgRP neuron ablation (POMC neurons; AgRP neuron ablated mice): completely prevented; POMC neuron hyperpolarization with blockade of glutamatergic inputs (POMC neurons; TTX + CNQX + AP5): did not affect; ability to hyperpolarize POMC neurons, GABAergic input (POMC neurons; TTX + bicuculline): dependent on intact GABAergic input; proportion of POMC neurons inhibited (POMC neurons; reduced resting membrane potential and firing frequency): ~85%
